The record followed here is patent US20240239894A1 (AstraZeneca / MedImmune, published 2024).

The target in experiment [1] is T1, Human B7H4 (ECD) Fc TM 6H (human, UniProt Q7Z7D3).
T1 construct: ECD, native leader
T1 sequence (Q7Z7D3 whole entry, looked up): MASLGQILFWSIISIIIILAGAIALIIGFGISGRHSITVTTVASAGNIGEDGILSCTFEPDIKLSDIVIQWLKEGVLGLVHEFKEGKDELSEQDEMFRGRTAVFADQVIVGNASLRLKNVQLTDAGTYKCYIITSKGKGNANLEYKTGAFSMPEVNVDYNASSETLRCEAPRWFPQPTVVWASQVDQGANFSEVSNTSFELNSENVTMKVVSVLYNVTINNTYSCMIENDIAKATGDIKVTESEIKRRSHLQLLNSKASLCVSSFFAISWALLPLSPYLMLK
As to the kind of experiment: ELISA, absorbance 450 nm, Human B7H4 (ECD) Fc TM 6H; x axis printed as antigen concentration (nM). On the technique in general: An ELISA detects its analyte on a solid surface through an enzyme-linked reagent.

The next experiment has as its target T2, huB7-H1 (human, UniProt Q9NZQ7 19-238).
T2 construct: Sourced antigen; construct not described; also called Human B7-H1
As to the kind of experiment: ELISA.

Another experiment concerns the target T3, huB7-H2 (human, UniProt O75144 19-258).
T3 construct: Sourced antigen; construct not described; also called Human B7-H2
T3 sequence (looked up): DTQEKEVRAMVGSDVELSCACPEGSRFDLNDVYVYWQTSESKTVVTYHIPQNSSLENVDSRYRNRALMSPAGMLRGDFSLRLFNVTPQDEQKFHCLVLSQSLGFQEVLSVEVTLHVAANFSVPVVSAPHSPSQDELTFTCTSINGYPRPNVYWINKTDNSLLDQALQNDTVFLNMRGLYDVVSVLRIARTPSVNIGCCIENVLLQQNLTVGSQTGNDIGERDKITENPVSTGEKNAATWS
As to the kind of experiment: ELISA.

The next experiment concerns the target T4, huB7-H3 (human, UniProt Q5ZPR3 29-461, limits assumed).
T4 construct: Sourced antigen; construct not described; also called Human B7-H3
T4 sequence (looked up): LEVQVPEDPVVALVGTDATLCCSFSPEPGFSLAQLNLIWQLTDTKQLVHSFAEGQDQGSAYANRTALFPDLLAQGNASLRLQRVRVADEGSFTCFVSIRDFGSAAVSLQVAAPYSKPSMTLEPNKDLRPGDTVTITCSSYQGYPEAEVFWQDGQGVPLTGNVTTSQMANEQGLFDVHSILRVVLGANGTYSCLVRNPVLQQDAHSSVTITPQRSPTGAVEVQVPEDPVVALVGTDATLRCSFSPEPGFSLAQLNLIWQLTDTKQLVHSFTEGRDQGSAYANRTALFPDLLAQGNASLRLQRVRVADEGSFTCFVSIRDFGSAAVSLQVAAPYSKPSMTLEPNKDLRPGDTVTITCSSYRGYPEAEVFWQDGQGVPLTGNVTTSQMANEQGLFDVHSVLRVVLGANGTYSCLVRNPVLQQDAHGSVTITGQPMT
As to the kind of experiment: ELISA.

A further experiment concerns the target T5, huBTN1A1 (human, UniProt Q13410 27-242, limits assumed).
T5 construct: Sourced antigen; construct not described; also called Human BTN1A1
T5 sequence (looked up): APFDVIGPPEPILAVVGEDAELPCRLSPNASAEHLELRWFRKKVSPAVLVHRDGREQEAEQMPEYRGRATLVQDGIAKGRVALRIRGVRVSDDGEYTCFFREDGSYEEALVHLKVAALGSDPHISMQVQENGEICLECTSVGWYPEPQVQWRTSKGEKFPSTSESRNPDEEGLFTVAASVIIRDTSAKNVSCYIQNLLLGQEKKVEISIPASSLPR
As to the kind of experiment: ELISA.

A further experiment deals with T6, huHHLA2 (human, UniProt Q9UM44 23-344).
T6 construct: Sourced antigen; construct not described; also called Human HHLA2
T6 sequence (looked up): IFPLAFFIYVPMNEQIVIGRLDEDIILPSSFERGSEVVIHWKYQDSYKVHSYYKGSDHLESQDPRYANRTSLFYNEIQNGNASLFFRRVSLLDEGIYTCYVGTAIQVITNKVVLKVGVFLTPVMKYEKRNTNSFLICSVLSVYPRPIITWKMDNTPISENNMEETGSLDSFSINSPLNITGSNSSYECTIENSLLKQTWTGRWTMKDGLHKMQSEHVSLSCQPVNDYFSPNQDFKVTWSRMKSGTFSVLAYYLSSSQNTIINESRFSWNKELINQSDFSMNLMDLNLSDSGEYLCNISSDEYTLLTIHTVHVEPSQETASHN
As to the kind of experiment: ELISA.

The target in the next experiment is T7, huBTN3A2 (human, UniProt P78410 30-248, limits assumed).
T7 construct: Sourced antigen; construct not described; also called Human BTN3A2
As to the kind of experiment: ELISA.

The next experiment deals with T8, huBTN2A1 (human, UniProt Q7KYR7 29-248, limits assumed).
T8 construct: Sourced antigen; construct not described; also called Human BTN2A1
T8 sequence (looked up): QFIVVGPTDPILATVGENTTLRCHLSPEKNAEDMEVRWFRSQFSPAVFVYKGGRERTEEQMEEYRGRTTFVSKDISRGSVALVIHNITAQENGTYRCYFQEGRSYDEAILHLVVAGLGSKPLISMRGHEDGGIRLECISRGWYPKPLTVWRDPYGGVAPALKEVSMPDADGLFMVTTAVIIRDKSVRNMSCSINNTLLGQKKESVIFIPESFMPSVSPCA
As to the kind of experiment: ELISA.

For a further experiment, the target named is T9, huBTNL3 (human, UniProt Q6UXE8 18-237, limits assumed).
T9 construct: Sourced antigen; construct not described; also called Human BTNL3
T9 sequence (looked up): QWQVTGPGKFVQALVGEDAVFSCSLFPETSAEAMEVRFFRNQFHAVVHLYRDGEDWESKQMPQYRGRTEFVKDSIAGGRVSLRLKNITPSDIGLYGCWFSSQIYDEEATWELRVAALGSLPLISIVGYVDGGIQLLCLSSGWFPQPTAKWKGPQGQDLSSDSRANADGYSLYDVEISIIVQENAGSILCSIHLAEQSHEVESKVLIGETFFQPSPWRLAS
As to the kind of experiment: ELISA.

Another experiment concerns the target T10, human B7-H4 on cells (human, UniProt Q7Z7D3 25-282).
T10 sequence: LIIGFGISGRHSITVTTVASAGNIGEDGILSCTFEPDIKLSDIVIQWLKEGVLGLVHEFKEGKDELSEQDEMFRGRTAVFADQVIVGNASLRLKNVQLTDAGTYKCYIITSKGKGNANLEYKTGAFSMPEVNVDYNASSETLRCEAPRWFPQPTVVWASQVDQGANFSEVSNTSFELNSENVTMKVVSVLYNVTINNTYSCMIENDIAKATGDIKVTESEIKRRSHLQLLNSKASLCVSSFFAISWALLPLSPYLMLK
As to the kind of experiment: cell-based or functional assay.

Experiment [2] deals with T11, Human B7-H4 ECD-Flag-His10 (monomeric) (human, UniProt Q7Z7D3 25-259).
T11 construct: Minimally biotinylated for KinExA; also called hB7H4-ECD-Flag-His10; B7-H4-FLAG
T11 sequence: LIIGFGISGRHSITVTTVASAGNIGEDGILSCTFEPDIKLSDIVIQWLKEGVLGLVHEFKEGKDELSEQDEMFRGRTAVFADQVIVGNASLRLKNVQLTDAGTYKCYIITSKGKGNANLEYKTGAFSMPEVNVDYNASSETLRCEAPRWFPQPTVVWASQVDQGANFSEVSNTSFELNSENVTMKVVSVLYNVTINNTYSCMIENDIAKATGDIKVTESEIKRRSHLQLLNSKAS
As to the kind of experiment: Octet BLI, hIgG1-TM on Protein G (n = 4-7). On the technique in general: Biolayer interferometry detects binding as a change in optical thickness at a sensor tip.

Experiment [3] has as its target T12, Murine B7-H4 ECD-Flag-His10 (monomeric) (mouse, UniProt Q7TSP5 25-257).
T12 construct: extracellular domain; also called FlagHis10 murine B7-H4
T12 sequence (looked up): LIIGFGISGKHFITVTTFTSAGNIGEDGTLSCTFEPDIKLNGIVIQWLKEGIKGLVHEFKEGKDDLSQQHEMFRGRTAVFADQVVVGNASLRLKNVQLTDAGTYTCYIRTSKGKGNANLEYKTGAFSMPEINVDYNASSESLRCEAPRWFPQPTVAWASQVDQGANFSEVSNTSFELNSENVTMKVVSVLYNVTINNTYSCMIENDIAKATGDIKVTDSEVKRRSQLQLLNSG
As to the kind of experiment: Octet BLI, hIgG1-TM on Protein G (n = 4-7).

Experiment [4] concerns the target T13, Human B7H4 ECD (SV), splice variant, 10His_FLAG (human).
T13 construct: also called B7-H4-SV
As to the kind of experiment: Octet BLI, hIgG1-TM on Protein G (n = 4-7).

Experiment [5] deals with T12, Murine B7-H4 ECD-Flag-His10 (monomeric). As to the kind of experiment: Octet; summary table, repeats Table 9 (hIgG1-TM).
The target in experiment [6] is T13, Human B7H4 ECD (SV), splice variant, …. As to the kind of experiment: Octet; summary table, repeats Table 9 (hIgG1-TM).
The target of experiment [7] is T11, Human B7-H4 ECD-Flag-His10 (monomeric). As to the kind of experiment: Octet; summary table, rounded from Table 9 (hIgG1-TM).
The target of experiment [8] is T14, cynomolgus monkey B7-H4 on cells (cynomolgus monkey, UniProt A0A2K5U6P5 25-282).
T14 sequence: T10 sequence with L53I, F242L, S252A
As to the kind of experiment: cell-based or functional assay.

Changes are numbered by the printed parent chain.

Broadly, the EC50 (read off the curve) is the concentration giving half of the maximal effect. The Kd is the concentration at which binding is half-saturated. Broadly, the koff is the first-order rate constant of dissociation. As a reminder, the kon is the second-order rate constant of association.

T7 sequence (P78410 30-248 limits assumed): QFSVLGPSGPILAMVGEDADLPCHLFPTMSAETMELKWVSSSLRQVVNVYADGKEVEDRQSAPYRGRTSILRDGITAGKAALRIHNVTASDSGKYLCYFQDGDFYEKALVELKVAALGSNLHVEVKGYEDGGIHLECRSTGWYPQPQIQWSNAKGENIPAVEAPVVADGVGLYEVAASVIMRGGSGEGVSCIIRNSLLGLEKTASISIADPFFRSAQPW
T2 sequence (Q9NZQ7 19-238 limits assumed): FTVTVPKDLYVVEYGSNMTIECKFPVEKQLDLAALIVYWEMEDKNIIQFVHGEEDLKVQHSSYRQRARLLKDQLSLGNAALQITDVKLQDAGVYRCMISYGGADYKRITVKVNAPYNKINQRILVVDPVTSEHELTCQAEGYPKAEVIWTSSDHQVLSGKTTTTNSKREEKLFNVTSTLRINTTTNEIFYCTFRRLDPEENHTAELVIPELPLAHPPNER

B1: E02-maia (ZY0EQD_E02, wildtype, Maia format human IgG1) (antibody, V domains shown)
VH: QVQLQQWGAGLLKPSETLSLTCAVYGGSFSGYYWNWIRQPPGKGLEWIGEINHSGSTSYNPSLKSRVTISVDTSKNQFSLKLSSVTAADTAVYYCARVLYNWNVDSWGQGTLVTVSS
VL: DIQMTQSPSSLSASVGDRVTITCRASQDIRNDVGWYQQKPGKAPKRLIYAASRLQSGVPSRFSGSGSGTEFTLTISSLQPEDFATYYCLQHNSYPRTFGQGTKVEIKR
notes: built here from VH 33 and the Maia constant region 41
B1: in [1], the “EC50 (read off the curve)” value is approximately 10 nM.

B2: ZY0EO5-E07 human IgG1-TM (antibody, V domains shown)
VH: QVQLQESGPGLVKPSQTLSLTCTVSGGSISSGGYYWSWIRQHPGKGLEWIGNIYYSGSTYYNPSLKSRVTISVDTSKNQFSLKLSSVTAADTAVYYCAREKALASVIPSGYENYYVVDVWGQGTTVTVSS
VL: DIQLTQSPSFLSASVGGRVTITCWASQGIAGYLAWYQQKPGKAPKLLIYAASTLQSGVPSRFSGSGSGTEFTLTISSLQPEDFATYYCQHLNSYPLTFGGGTKVEIK
notes: also called ZY0E05-E07; E05-E07
For the molecule B2, the binding result with huB7-H1, in the experiment with huB7-H2, with huB7-H3, with huBTN1A1, in the experiment with huHHLA2 and with huBTN3A2 was “no binding” throughout. Also, the binding result with huBTN2A1 and with huBTNL3 was “no binding” each time. Besides, the “ZAP % Viability, OVCAR4” value with human B7-H4 on cells came out at 58%. In addition, the “ZAP % Viability, SKBR3” value in the experiment with human B7-H4 on cells worked out at 79%. In addition, the dissociation constant (Kd) in experiment [2] amounted to 19.8 nM; in experiment [3] it was 30 nM; in experiment [4], 264 nM; in experiment [5], 30 nM; in experiment [6], 264 nM; in experiment [7], 20 nM. For the same molecule, the figures for the koff in experiment [2], in [3] and in [4] were 0.000338 s⁻¹, 0.000361 s⁻¹ and 0.000499 s⁻¹, respectively. Also, the kon in experiment [2] is 17100 M⁻¹ s⁻¹; in experiment [3], 12100 M⁻¹ s⁻¹; in experiment [4], 1890 M⁻¹ s⁻¹.

B3: E02-GL-SG3249 (antibody, human IgG1, kappa)
heavy: QVQLQQWGAGLLKPSETLSLACTVYGGSFSGYYWNWIRQPPGKGLEWIGEINHSGSTSYNPSLKSRVTISVDTSKNQFSLKLSSVTAADTAVYYCARVLYNWNVDSWGQGTLVTVSSASTKGPSVFPLAPSSKSTSGGTAALGCLVKDYFPEPVTVSWNSGALTSGVHTFPAVLQSSGLYSLSSVVTVPSSSLGTQTYICNVNHKPSNTKVDKRVEPKSCDKTHTCPPCPAPELLGGPSCVFLFPPKPKDTLMISRTPEVTCVVVDVSHEDPEVKFNWYVDGVEVHNAKTKPREEQYNSTYRVVSVLTVLHQDWLNGKEYKCKVSNKALPAPIEKTISKAKGQPREPQVYTLPPSREEMTKNQVSLTCLVKGFYPSDIAVEWESNGQPENNYKTTPPVLDSDGSFFLYSKLTVDKSRWQQGNVFSCSVMHEALHNHYTQKSLSLSPGK
light: DIQMTQSPSSLSASVGDRVTITCRASQDIRNDVGWYQQKPGKAPKRLIYAASRLQSGVPSRFSGSGSGTEFTLTISSLQPEDFATYYCLQHNSYPRTFGQGTKVEIKRTVAAPSVFIFPPSDEQLKSGTASVVCLLNNFYPREAKVQWKVDNALQSGNSQESVTEQDSKDSTYSLSSTLTLSKADYEKHKVYACEVTHQGLSSPVTKSFNRGEC
modifications: pyrrolobenzodiazepine SG3249 conjugated at the inserted cysteine of the Maia backbone
Consider B3, for which the “IC50, cytotoxicity on cynomolgus B7-H4 transfected cells” value in experiment [8] worked out at 0.672 ng/mL.
